Test results from patent US20010046966, “Inhibition of adipogenesis” (published 2001).

Key:
[1] = target: T1, GATA-2 (UniProt O09100 O09100:1-480); test: competition; 1 ug competitor competed complex; details: tags: GST fusion (pGEX-2T)
Experimental: (§1) FIG. 5B is a photograph of an electrophoretic gel showing the results of an mobility shift assay. Based on the result of Dnase I footprinting, two double stranded DNA fragment (nucleotide −199 to −85 and nucleotide −22 to +9, respectively) were end-labeled with 32P and electrophoretic mobility shift assays were performed with GST-GATA-2 or GST-GATA-3. For each protein-DNA reaction, specific (S) or non-specific (N) DNA competitors were also included in the experiments.
(§2) After confirming the requirement for GATA DNA-binding activity, experiments were carried out to determine whether this activity requires direct interaction with the PPAR-gamma 2 promoter. The proximal PPAR-gamma 2 promoter region was evaluated by deletion analysis. […] To determine if and at what sites GATA factors directly interact with DNA on this fragment, DNase I footprinting experiments were carried out (FIG. 5A) combined with elecrophoretic mobility shift assays (FIG. 5B) using recombinant GATA-2 and GATA-3 fusion proteins. The electrophoretic mobility shift assays were performed in 20 ul reaction volume. 2 ul GST-GATA fusion protein was incubated with 0.5 ug poly[d(I-C)] and ³²p labeled DNA probe (4×10⁴ cpm) in the presence or absence of 1 ug of specific or non-specific competitors, at room temperature for 20 min. […]

[2] = target: T2, GATA-3 (UniProt P23772 P23772:1-443); test: competition; 1 ug competitor competed complex; details: tags: GST fusion
Experimental: as §1, §2

[3] = target: T1, GATA-2; test: competition; 1 ug, no competition; details: tags: GST fusion (pGEX-2T)
Experimental: as §1, §2

[4] = target: T2, GATA-3; test: competition; 1 ug, no competition; details: tags: GST fusion
Experimental: as §1, §2

T1 sequence (O09100 whole entry, the tested form may be a part, one chain of several): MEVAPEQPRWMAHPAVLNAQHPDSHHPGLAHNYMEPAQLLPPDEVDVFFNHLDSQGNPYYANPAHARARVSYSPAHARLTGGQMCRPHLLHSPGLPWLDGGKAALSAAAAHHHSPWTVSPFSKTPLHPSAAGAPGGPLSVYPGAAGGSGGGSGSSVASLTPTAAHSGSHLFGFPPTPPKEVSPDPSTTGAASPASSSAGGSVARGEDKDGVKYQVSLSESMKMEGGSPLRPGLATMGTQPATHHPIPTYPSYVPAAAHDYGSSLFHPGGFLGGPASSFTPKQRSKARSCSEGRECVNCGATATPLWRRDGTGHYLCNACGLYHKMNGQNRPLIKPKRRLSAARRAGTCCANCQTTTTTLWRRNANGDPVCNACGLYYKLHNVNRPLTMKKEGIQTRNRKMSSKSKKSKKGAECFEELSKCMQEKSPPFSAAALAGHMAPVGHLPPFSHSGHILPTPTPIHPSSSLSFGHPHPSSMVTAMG
T2 sequence (P23772 whole entry, the tested form may be a part, one chain of several): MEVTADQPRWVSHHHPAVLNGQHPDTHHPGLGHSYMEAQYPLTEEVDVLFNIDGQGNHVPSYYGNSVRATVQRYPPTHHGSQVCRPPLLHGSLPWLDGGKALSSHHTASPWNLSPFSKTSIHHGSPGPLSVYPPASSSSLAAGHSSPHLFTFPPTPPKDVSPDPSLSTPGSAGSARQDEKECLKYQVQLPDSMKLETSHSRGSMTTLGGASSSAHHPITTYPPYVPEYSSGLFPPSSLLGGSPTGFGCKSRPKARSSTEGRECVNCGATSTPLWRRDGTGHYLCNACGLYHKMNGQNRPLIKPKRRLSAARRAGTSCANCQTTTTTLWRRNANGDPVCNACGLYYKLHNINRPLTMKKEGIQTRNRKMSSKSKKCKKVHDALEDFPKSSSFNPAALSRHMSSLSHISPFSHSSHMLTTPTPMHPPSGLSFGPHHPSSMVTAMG

B1: specific GATA competitor (dsDNA)
DNA 1: GATCTCCGGCAACTGATAAGGATTCCCTG
DNA 2: CAGGGAATCCTTATCAGTTGCCGGAGATC
[1]
  binding result: binds
[2]
  binding result: binds

B2: non-specific competitor (dsDNA)
DNA 1: GATCGAACTGACCGCCCGCGGCCCGT
DNA 2: ACGGGCCGCGGGCGGTCAGTTCGATC
[3]
  binding result: no binding
[4]
  binding result: no binding
